In the supplement of paper PMC9233669 one finds self-aminoacylation data, which are given here for 25 sequences.

One data set deals with biotinyl-Met-oxazolone. Kind of data set: self-aminoacylation, catalytic enhancement (BMO) (fold over background); higher = more active; k-Seq, kA / k0A0; sequences stand for … in GGGAAUGGAUCCACAUCUACGAAUUC…UUCACUGCAGACUUGACGAAGCUG
In a few lines:
(§1)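 Mutagenized RNA pools (0.43 μM; 21-nt variable region) were treated with 2–1250 μM of each biotinyl-aminoacyl-oxazolone. Conditions were 50 μL HEPES/NaCl/KCl/MgCl2/CaCl2 buffer, 5% acetonitrile, pH 6.9–7.0, room temperature, 90 minutes. Catalytic enhancement, the median kA relative to the uncatalyzed rate, was derived from streptavidin capture, qPCR and Illumina sequencing.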

For another data set, the system named is biotinyl-Ile-oxazolone. Description: self-aminoacylation, catalytic enhancement (BIO) (fold over background); higher = more active; k-Seq, kA / k0A0; sequences stand for … in GGGAAUGGAUCCACAUCUACGAAUUC…UUCACUGCAGACUUGACGAAGCUG
In a few lines:
as §1

For a further data set, the system named is biotinyl-Phe-oxazolone. Description: self-aminoacylation, catalytic enhancement (BFO) (fold over background); higher = more active; k-Seq, kA / k0A0; sequences stand for … in GGGAAUGGAUCCACAUCUACGAAUUC…UUCACUGCAGACUUGACGAAGCUG
In a few lines:
as §1

A further data set concerns biotinyl-Leu-oxazolone. Kind of data set: self-aminoacylation, catalytic enhancement (BLO) (fold over background); higher = more active; k-Seq, kA / k0A0; sequences stand for … in GGGAAUGGAUCCACAUCUACGAAUUC…UUCACUGCAGACUUGACGAAGCUG
In a few lines:
as §1

A further data set concerns biotinyl-Trp-oxazolone. Kind of data set: self-aminoacylation, catalytic enhancement (BWO) (fold over background); higher = more active; k-Seq, kA / k0A0; sequences stand for … in GGGAAUGGAUCCACAUCUACGAAUUC…UUCACUGCAGACUUGACGAAGCUG
Put shortly: as §1

Another data set concerns biotinyl-Val-oxazolone. Kind of data set: self-aminoacylation, catalytic enhancement (BVO) (fold over background); higher = more active; k-Seq, kA / k0A0; sequences stand for … in GGGAAUGGAUCCACAUCUACGAAUUC…UUCACUGCAGACUUGACGAAGCUG
In a few lines: as §1

This sample holds only a part of the variants without activity.

Consider “AUUACCCCCGUCAUCGAGUGA [Fam2.1 aminoacylation ribozyme variant]”, for which the self-aminoacylation in the data set on biotinyl-Met-oxazolone amounted to 4.43; in the data set with biotinyl-Ile-oxazolone, 2.84; in the data set on biotinyl-Phe-oxazolone it was 18.4; with biotinyl-Leu-oxazolone, 4.7; in the data set on biotinyl-Trp-oxazolone, 4.67; in the data set on biotinyl-Val-oxazolone, 3.12.

As for “AAGGUUCCUAAUAGUCGCAAG [Fam3.1 aminoacylation ribozyme variant]”, the self-aminoacylation is 1.64 with biotinyl-Met-oxazolone; 1.61 with biotinyl-Ile-oxazolone; 1.62 in the data set on biotinyl-Phe-oxazolone; 1.5 in the data set with biotinyl-Leu-oxazolone; 1.43 in the data set with biotinyl-Trp-oxazolone; 1.39 in the data set on biotinyl-Val-oxazolone.

As to “AUUAACCGAGGUCAUCGGGUG [Fam2.2 aminoacylation ribozyme variant]”, the self-aminoacylation amounted to 7.9 in the data set on biotinyl-Met-oxazolone; 4.6 in the data set on biotinyl-Ile-oxazolone; 48.9 in the data set with biotinyl-Phe-oxazolone; 7.86 in the data set on biotinyl-Leu-oxazolone; 7.45 in the data set with biotinyl-Trp-oxazolone; 5.32 in the data set with biotinyl-Val-oxazolone.

In the case of “AUUCACCUAAGUCAUAGGGUG [Fam2.2 aminoacylation ribozyme variant]”, the self-aminoacylation amounted to 1.87 in the data set with biotinyl-Met-oxazolone; 1.32 in the data set on biotinyl-Ile-oxazolone; 5.88 with biotinyl-Phe-oxazolone; 1.92 in the data set with biotinyl-Leu-oxazolone; 1.3 in the data set with biotinyl-Trp-oxazolone; 1.21 in the data set on biotinyl-Val-oxazolone.

With “AUGACCCUGGUCAUCUAGUGA [Fam2.1 aminoacylation ribozyme variant]”, the self-aminoacylation in the data set with biotinyl-Met-oxazolone worked out at 8.18; in the data set with biotinyl-Ile-oxazolone, 3.75; with biotinyl-Phe-oxazolone it was 63.5; in the data set on biotinyl-Leu-oxazolone, 8.57; with biotinyl-Trp-oxazolone it was 9.46; in the data set on biotinyl-Val-oxazolone, 3.7.

Turning to “CCACUCUUCAAGCAAUGGGUC [Fam1B.1 aminoacylation ribozyme variant]”, the self-aminoacylation in the data set on biotinyl-Met-oxazolone was 0.953; with biotinyl-Ile-oxazolone, 0.877; with biotinyl-Phe-oxazolone, 0.667; in the data set on biotinyl-Leu-oxazolone, 0.911; with biotinyl-Trp-oxazolone, 0.647; with biotinyl-Val-oxazolone it was 0.859.

For the sequence “AAGUUAGCUUAUAGUCGCAAG [Fam3.1 aminoacylation ribozyme variant]”, the self-aminoacylation with biotinyl-Met-oxazolone turned out to be 1.43; with biotinyl-Ile-oxazolone, 1.8; in the data set with biotinyl-Phe-oxazolone it was 2.88; with biotinyl-Leu-oxazolone, 1.48; in the data set on biotinyl-Trp-oxazolone it was 1.9; in the data set with biotinyl-Val-oxazolone it was 1.56.

For the sequence “CCACACUUCAAGCAAUCGGAA [Fam1B.1 aminoacylation ribozyme variant]”, the self-aminoacylation was 1.42 with biotinyl-Met-oxazolone; 1.45 with biotinyl-Ile-oxazolone; 1.81 with biotinyl-Phe-oxazolone; 2.04 in the data set with biotinyl-Leu-oxazolone; 1.18 in the data set with biotinyl-Trp-oxazolone; 1.51 in the data set on biotinyl-Val-oxazolone.

Turning to “AAGAUCGCUAAUAGUCGCAAG [Fam3.1 aminoacylation ribozyme variant]”, the self-aminoacylation in the data set on biotinyl-Met-oxazolone is 1.79; in the data set with biotinyl-Ile-oxazolone, 1.86; with biotinyl-Phe-oxazolone, 3.04; with biotinyl-Leu-oxazolone, 2.08; in the data set on biotinyl-Trp-oxazolone, 1.96; with biotinyl-Val-oxazolone, 1.51.

In the case of “AUUCACCUAGUCCAUCGGGUG [Fam2.2 aminoacylation ribozyme variant]”, the self-aminoacylation in the data set with biotinyl-Met-oxazolone amounted to 6.16; in the data set on biotinyl-Ile-oxazolone, 3.54; with biotinyl-Phe-oxazolone it was 40.5; with biotinyl-Leu-oxazolone, 6.98; in the data set with biotinyl-Trp-oxazolone it was 6.38; in the data set with biotinyl-Val-oxazolone, 3.82.

Turning to “CUUACCCGGGUCAUCGAGUGA [Fam2.1 aminoacylation ribozyme variant]”, the self-aminoacylation in the data set on biotinyl-Met-oxazolone worked out at 5.92; in the data set on biotinyl-Ile-oxazolone it was 3.03; in the data set with biotinyl-Phe-oxazolone it was 36.5; with biotinyl-Leu-oxazolone, 7.48; with biotinyl-Trp-oxazolone, 7.34; in the data set on biotinyl-Val-oxazolone, 3.48.

Take “CCACACAUCCAGCAAUCGGUC [Fam1B.1 aminoacylation ribozyme variant]”: the self-aminoacylation in the data set with biotinyl-Met-oxazolone is 1.05; in the data set on biotinyl-Ile-oxazolone, 1.2; with biotinyl-Phe-oxazolone, 0.873; with biotinyl-Leu-oxazolone, 0.983; in the data set with biotinyl-Trp-oxazolone it was 0.847; in the data set with biotinyl-Val-oxazolone, 1.08.

For the sequence “AAGUGUCCUAAUAGUCGCAAG [Fam3.1 aminoacylation ribozyme variant]”, the self-aminoacylation stood at 0.945 in the data set with biotinyl-Met-oxazolone; 1.18 in the data set on biotinyl-Ile-oxazolone; 0.985 in the data set with biotinyl-Phe-oxazolone; 0.952 in the data set with biotinyl-Leu-oxazolone; 0.664 in the data set on biotinyl-Trp-oxazolone; 0.995 in the data set with biotinyl-Val-oxazolone.

For “AUGCACUUAGGUCAUCGGGUG [Fam2.2 aminoacylation ribozyme variant]”, the self-aminoacylation with biotinyl-Met-oxazolone stood at 8.73; in the data set on biotinyl-Ile-oxazolone it was 5.29; in the data set on biotinyl-Phe-oxazolone, 62.8; in the data set with biotinyl-Leu-oxazolone, 10.6; with biotinyl-Trp-oxazolone it was 7.92; with biotinyl-Val-oxazolone, 5.03.

With “CUACUUCAAACAGUCGUUCUG [Fam1A.1 aminoacylation ribozyme variant]”, the self-aminoacylation with biotinyl-Met-oxazolone amounted to 0.589; with biotinyl-Ile-oxazolone, 0.579; with biotinyl-Phe-oxazolone, 0.701; in the data set with biotinyl-Leu-oxazolone it was 0.475; in the data set on biotinyl-Trp-oxazolone it was 0.472; with biotinyl-Val-oxazolone, 0.611.

Take “AUCCACCUAGGUCAUCGGGUC [Fam2.2 aminoacylation ribozyme variant]”: the self-aminoacylation is 2.25 in the data set with biotinyl-Met-oxazolone; 1.72 with biotinyl-Ile-oxazolone; 5.86 in the data set on biotinyl-Phe-oxazolone; 1.93 with biotinyl-Leu-oxazolone; 2.68 with biotinyl-Trp-oxazolone; 2.04 in the data set on biotinyl-Val-oxazolone.

“CUUCUUCAAACAAUCGUUCUG [Fam1A.1 aminoacylation ribozyme variant]”: the self-aminoacylation in the data set with biotinyl-Met-oxazolone is 0.62; in the data set on biotinyl-Ile-oxazolone, 0.68; with biotinyl-Phe-oxazolone, 1.06; with biotinyl-Leu-oxazolone, 0.65; with biotinyl-Trp-oxazolone it was 0.804; with biotinyl-Val-oxazolone it was 0.6.

For “CAACUUCAAACAAACGGUCUG [Fam1A.1 aminoacylation ribozyme variant]”, the self-aminoacylation amounted to 0.945 in the data set with biotinyl-Met-oxazolone; 1.07 in the data set with biotinyl-Ile-oxazolone; 0.948 in the data set on biotinyl-Phe-oxazolone; 0.995 in the data set on biotinyl-Leu-oxazolone; 1.04 in the data set on biotinyl-Trp-oxazolone; 0.946 with biotinyl-Val-oxazolone.

For “ACUACCCUGGUCAACGAGUGA [Fam2.1 aminoacylation ribozyme variant]”, the self-aminoacylation in the data set on biotinyl-Met-oxazolone is 5.53; in the data set on biotinyl-Ile-oxazolone, 3.48; in the data set with biotinyl-Phe-oxazolone, 17; in the data set on biotinyl-Leu-oxazolone, 5.55; in the data set with biotinyl-Trp-oxazolone, 6.49; in the data set with biotinyl-Val-oxazolone, 3.82.

With “CUACACUUCAAGCAAUCGGCC [Fam1B.1 aminoacylation ribozyme variant]”, the self-aminoacylation amounted to 1.69 in the data set with biotinyl-Met-oxazolone; 1.82 with biotinyl-Ile-oxazolone; 6.22 with biotinyl-Phe-oxazolone; 2.41 with biotinyl-Leu-oxazolone; 5.03 in the data set with biotinyl-Trp-oxazolone; 1.75 with biotinyl-Val-oxazolone.

Take “CCACACUUAAAGCAACCGGUC [Fam1B.1 aminoacylation ribozyme variant]”: the self-aminoacylation with biotinyl-Met-oxazolone is 1.2; with biotinyl-Ile-oxazolone, 1.08; in the data set with biotinyl-Phe-oxazolone, 0.756; with biotinyl-Leu-oxazolone, 0.876; in the data set on biotinyl-Trp-oxazolone, 0.943; in the data set on biotinyl-Val-oxazolone, 1.16.

With “AAUCACCUAGGUCCUCGGGUG [Fam2.2 aminoacylation ribozyme variant]”, the self-aminoacylation in the data set with biotinyl-Met-oxazolone amounted to 3.73; with biotinyl-Ile-oxazolone, 3.74; in the data set with biotinyl-Phe-oxazolone it was 19.7; in the data set on biotinyl-Leu-oxazolone, 5.07; in the data set on biotinyl-Trp-oxazolone it was 5.34; with biotinyl-Val-oxazolone, 3.29.

Regarding “CGACACUUCAAGAAAUCGGUC [Fam1B.1 aminoacylation ribozyme variant]”, the self-aminoacylation in the data set with biotinyl-Met-oxazolone came to 1.25; in the data set with biotinyl-Ile-oxazolone it was 1.62; with biotinyl-Phe-oxazolone, 3.41; in the data set with biotinyl-Leu-oxazolone, 1.24; in the data set on biotinyl-Trp-oxazolone, 2.88; in the data set on biotinyl-Val-oxazolone it was 1.26.

Regarding “CCACACAUCAAGCAAUCGGCC [Fam1B.1 aminoacylation ribozyme variant]”, the self-aminoacylation in the data set on biotinyl-Met-oxazolone is 1.65; in the data set on biotinyl-Ile-oxazolone it was 2.66; with biotinyl-Phe-oxazolone it was 4.94; with biotinyl-Leu-oxazolone, 2.25; in the data set with biotinyl-Trp-oxazolone, 2.88; with biotinyl-Val-oxazolone, 2.9.

With “CCACACUCCAAGAAAUCGGUC [Fam1B.1 aminoacylation ribozyme variant]”, the self-aminoacylation was 0.768 in the data set with biotinyl-Met-oxazolone; 1.31 in the data set on biotinyl-Ile-oxazolone; 0.991 in the data set on biotinyl-Phe-oxazolone; 0.848 in the data set with biotinyl-Leu-oxazolone; 1 with biotinyl-Trp-oxazolone; 0.973 with biotinyl-Val-oxazolone.
